Our source for the Ka values is patent publication US20130280250A1 (published 2013).

The target in the test is T1, CD20 (human, UniProt P11836 1-297).
T1 construct: whole, on cells; also called CD20 on live cells; CD20 on Daudi and Raji cells
T1 sequence (looked up): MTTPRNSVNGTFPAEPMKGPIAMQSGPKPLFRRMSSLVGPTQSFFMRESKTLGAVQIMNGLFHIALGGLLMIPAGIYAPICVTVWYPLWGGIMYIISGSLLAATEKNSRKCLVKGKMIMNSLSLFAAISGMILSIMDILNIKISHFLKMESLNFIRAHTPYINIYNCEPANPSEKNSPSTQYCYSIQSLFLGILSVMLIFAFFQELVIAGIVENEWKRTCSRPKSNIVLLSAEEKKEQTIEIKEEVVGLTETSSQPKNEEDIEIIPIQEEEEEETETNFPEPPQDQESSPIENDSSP
In words: Scatchard analysis, radio-iodinated sample on Raji cells; apparent association constant.

B1: veltuzumab (hA20) (antibody, V domains shown)
VH: QVQLQQSGAEVKKPGSSVKVSCKASGYTFTSYNMHWVKQAPGQGLEWIGAIYPGMGDTSYNQKFKGKATLTADESTNTAYMELSSLRSEDTAFYYCARSTYYGGDWYFDVWGQGTTVTVSS
VL: DIQLTQSPSSLSASVGDRVTMTCRASSSVSYIHWFQQKPGKAPKPWIYATSNLASGVPVRFSGSGSGTDYTFTISSLQPEDIATYYCQQWTSNPPTFGGGTKLEIK
As for B1, the Ka was determined as 1e+08 M⁻¹.
